The text below walks through data of US20240092853A1 (Hoffmann-La Roche, published 2024).

Sequences and labels used below:
B1: ExplResOnc.P177.0035 (IL2v (consensus all)) (ligand, not shown: large carriers)
chain: APASSSTKKTELQLQELLDDLQMILNGINNYKNPKLTRMLTAKFAMPKKATELKHLQCLEEELKPLEEVLNGAQSKNFHLDPRELIENINVIVLELKGSETTFMCEYADETATIVEFLNHWITFAQSIIETLE
notes: as m20
B2: ExplResOnc.P173.0259 (ligand, not shown: large carriers)
chain: B1 chain with D81E, E84D
notes: as m20
B3: ExplResOnc.P173.0371 (ligand, not shown: large carriers)
chain: B1 chain with E11Q, Q15E, M23Q, D81N, E87D, E133D
notes: as m20
B4: ExplResOnc.P177.0156 (ligand, not shown: large carriers)
chain: B1 chain with L12S, Q15E, M23Q
notes: as m20
B5: ExplResOnc.P174.0327 (ligand, not shown: large carriers)
chain: B1 chain with L12E, Q13H, E16N, Q22E, M23Q, D81E, E87D, E95D, E130S
notes: as m20
B6: ExplResOnc.P177.0036 (ligand, not shown: large carriers)
chain: B1 chain with D81Q
notes: as m20
B7: ExplResOnc.P173.0255 (ligand, not shown: large carriers)
chain: B1 chain with L12D, Q13H, D19L, Q22E, M23E, D81N
notes: as m20
B8: ExplResOnc.P173.0127 (ligand, not shown: large carriers)
chain: B1 chain with Q15E, M23E, E84D, Q126E, E130S, E133D
notes: as m20
B9: ExplResOnc.P173.0364 (ligand, not shown: large carriers)
chain: B1 chain with E11Q, Q15E, E16D, D19L, M23N, E87S
notes: as m20
B10: ExplResOnc.P178.0145 (ligand, not shown: large carriers)
chain: B1 chain with L12E, Q15E, E16N, D19L, M23N, D81E, E87S
notes: as m20
B11: ExplResOnc.P174.0173 (ligand, not shown: large carriers)
chain: B1 chain with L12T, Q22H
notes: as m20
B12: ExplResOnc.P172.0344 (ligand, not shown: large carriers)
chain: APASSYTKKTQERLEQLLLDLEQILNGINNYKNPKLTRMLTAKFAMPKKATELKHLQCLEEELKPLEEVLNGAQSKNFHLNPRELIENINVIVLELKGSETTFMCEYADETATIVEFLNHWITFAQSIIETLD
notes: as m20
B13: ExplResOnc.P174.0040 (ligand, not shown: large carriers)
chain: B1 chain with L12T, Q15E, E16Q, M23E
notes: as m20
B14: ExplResOnc.P173.0182 (ligand, not shown: large carriers)
chain: B1 chain with Q15E, D19L, M23E, D81N, Q126E
notes: as m20
B15: ExplResOnc.P175.0368 (ligand, not shown: large carriers)
chain: B1 chain with E11T, L12E, H120E, E133D
notes: as m20
B16: ExplResOnc.P173.0239 (ligand, not shown: large carriers)
chain: B1 chain with D19L, Q22E, M23E, D81H, E133D
notes: as m20
B17: ExplResOnc.P173.0156 (ligand, not shown: large carriers)
chain: B1 chain with L12S, E16N, M23E, D81E, E87D
notes: as m20
B18: ExplResOnc.P173.0087 (ligand, not shown: large carriers)
chain: B1 chain with L12E, Q15E, E16Q, Q22E, M23N, D81E
notes: as m20
B19: ExplResOnc.P174.0326 (ligand, not shown: large carriers)
chain: B1 chain with E11Q, Q15E, Q22D, M23Q
notes: as m20
B20: ExplResOnc.P173.0079 (ligand, not shown: large carriers)
chain: B1 chain with E11Q, Q15E, Q22E, M23Q, E87D
notes: soluble pH-dependent IL2v variant in bacterial supernatant, second library
B21: ExplResOnc.P175.0125 (ligand, not shown: large carriers)
chain: B1 chain with L12T, Q15E, Q22E, E133D
notes: as m20
B22: ExplResIEE.P026.191 (ligand)
chain: B1 chain with E11Q, L12E, Q15E, E16H, E84D, E87S, H120E, T123E
notes: as m5; not shown: C-terminal His tag and Flag tag of the phagemid
B23: ExplResIEE.P026.099 (ligand)
chain: B12 chain with Y6S, R13Q, Q16H, D20E, E22Q, Q23N, H120E, T123E, D133N
notes: soluble pH-dependent IL2v variant in bacterial supernatant, first library; not shown: C-terminal His tag and Flag tag of the phagemid
B24: ExplResIEE.P027.359 (ligand)
chain: B1 chain with Q15E, E16H, E87S, H120R, E133D
notes: as for B22
B25: ExplResIEE.P026.175 (ligand)
chain: B1 chain with Q15E, E16H, D19L, D20Q, M23E, H120R, E133N
notes: as for B22
B26: ExplResIEE.P041.554 (ligand)
chain: APASSSTKKTQQQLEHLLQDLQMILNGINNYKNPKLTRMLTAKFAMPKKATELKHLQCLEEELKPLEEVLNGAQSKNFHLHPRDLISNINEIVLELKGSETTFMCEYADETATIVEFLNRWIEFAQSIIETLE
notes: as for B22
B27: ExplResIEE.P041.017 (ligand)
chain: B26 chain with Q11E, Q12E, Q19L, M23Q, H81Q, S87D, E91N, E95Q, R120H
notes: as for B22
B28: ExplResIEE.P030.006 (ligand)
chain: B26 chain with Q12L, Q19L, H81D, D84Q, S87D, E91N, E123Q, E133D
notes: as for B22
B29: ExplResIEE.P026.237 (ligand)
chain: B26 chain with Q12L, Q19L, H81Q, S87E, E91D, E133D
notes: as for B22
B30: ExplResIEE.P041.449 (ligand)
chain: B26 chain with Q12L, Q19L, H81Q, S87E, E91D, R120E, E123T, E133D
notes: as for B22
B31: ExplResIEE.P042.107 (ligand)
chain: B1 chain with K8E, E11Q, Q15E, E16H, D19L, D20E, M23N, D81H, E84Q, E133D
notes: as for B22
B32: ExplResIEE.P041.242 (ligand)
chain: B26 chain with Q12L, Q19D, H81E, E91V, E123T, E133D
notes: as for B22
B33: ExplResIEE.P026.355 (ligand)
chain: B1 chain with L12E, Q15E, E16H, D19L, M23Q, E84D, V91D, H120R, E133Q
notes: as for B22
B34: ExplResIEE.P030.045 (ligand)
chain: B1 chain with E11Q, Q15E, E16H, D81E, E87Q
notes: as for B22
B35: ExplResIEE.P031.226 (ligand)
chain: B26 chain with Q12L, Q19D, M23N, H81D, E91V, E123T, E130S
notes: as for B22

Substitutions are numbered along the chain they refer to.

The target of one assay is T1, IL2R(bg)-Fc construct (human IL2R beta extracellular domain fused to Fc(knob) with avi tag, human IL2R gamma … (human, biotin on the C-terminal avi tag (co-expressed BirA))).
T1 construct: Knob-into-hole Fc heterodimer; also called IL2Rβγ; human heterodimeric IL-2 receptor beta/gamma
T1 sequence (chain, as listed by the source limits assumed, chain 1 of 2): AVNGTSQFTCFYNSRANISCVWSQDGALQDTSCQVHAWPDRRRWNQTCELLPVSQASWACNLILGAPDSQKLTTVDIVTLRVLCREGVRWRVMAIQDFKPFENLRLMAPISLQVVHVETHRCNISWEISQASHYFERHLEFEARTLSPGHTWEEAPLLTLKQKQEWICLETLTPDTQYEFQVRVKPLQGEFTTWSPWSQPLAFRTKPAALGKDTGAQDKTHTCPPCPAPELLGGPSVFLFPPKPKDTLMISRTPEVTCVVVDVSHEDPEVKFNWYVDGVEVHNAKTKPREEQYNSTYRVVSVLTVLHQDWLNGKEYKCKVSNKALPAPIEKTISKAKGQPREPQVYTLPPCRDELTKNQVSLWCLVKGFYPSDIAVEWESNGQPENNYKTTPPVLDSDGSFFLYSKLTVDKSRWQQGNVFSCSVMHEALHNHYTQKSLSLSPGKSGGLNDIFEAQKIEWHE
T1 sequence (chain, as listed by the source limits assumed, chain 2 of 2): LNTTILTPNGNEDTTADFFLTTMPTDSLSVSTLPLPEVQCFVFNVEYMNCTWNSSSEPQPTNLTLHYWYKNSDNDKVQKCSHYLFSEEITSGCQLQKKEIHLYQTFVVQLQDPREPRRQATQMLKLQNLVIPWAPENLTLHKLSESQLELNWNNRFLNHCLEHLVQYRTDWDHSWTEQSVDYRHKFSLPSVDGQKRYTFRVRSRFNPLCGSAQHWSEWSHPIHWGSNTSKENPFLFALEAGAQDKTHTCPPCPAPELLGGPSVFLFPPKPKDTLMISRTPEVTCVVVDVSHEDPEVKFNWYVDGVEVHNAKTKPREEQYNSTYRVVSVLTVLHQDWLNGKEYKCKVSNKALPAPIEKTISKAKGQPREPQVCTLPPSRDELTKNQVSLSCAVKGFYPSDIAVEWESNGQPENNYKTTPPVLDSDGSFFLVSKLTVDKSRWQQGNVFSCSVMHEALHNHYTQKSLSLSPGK
Briefly: ELISA: biotinylated IL2R(bg)-Fc coated on neutravidin plates, clone in bacterial supernatant bound at pH 6, washing and 30 min incubation at pH 6.0, 6.5, 7.0 or 7.4, detection with anti-Flag/HRP; absorption at pH 6 set to 1. The protocol:
FIG. 4. Binding analysis for the second set of selected pH-dependent IL2v variants to IL2Rfβγ at pH 6, pH 6.5, pH 7 and pH 7.4 by ELISA. Bacterial supernatants containing clonal pH-dependent IL2v variants were incubated with previously coated IL2Rfβγ. Prior to the detection by an anti-Flag/HRP secondary antibody, extensive washing for 30 minutes was performed at pH 6 or pH 7.4. The absorption at pH 6 was normalized to a value of 1 and the ratio of absorption levels was compared.
25 μl of 50 nM biotinylated antigen per well were coated at pH 6 on 384-well neutravidin plates and blocked with 2% BSA (50 mM BisTris 140 mM NaCL, 2% BSA, pH 6). Bacterial supernatants containing soluble variants of IL2v were re-buffered to pH 6, added to the plates and incubated for 1 h. Subsequently, several washing steps were performed at either pH 6 or pH 7.4 followed by an incubation step in washing buffer for 30 min at the respective pH. Binding of pH-dependent IL2v variants to the IL2R(bg)-Fc construct was detected via Flag tag by using an anti-Flag/HRP secondary antibody. Comparison of the signal between the two conditions (pH6 vs pH7.4) allowed identifying clones that bind in a pH-dependent manner. The phagemid expressing the parental IL2v construct was used as an internal control for a pH-independent signal. Clones with a binding ratio at pH 6 versus pH 7 that greater than 10 were short-listed and re-tested in order to confirm their pH-dependency.
In order to further characterize the selected pH-dependent IL2v variants, they were analyzed for their binding to IL2R(bg)-Fc under four different pH conditions including pH 6, pH 6.5, pH 7, and pH 7.4. Binding at pH 6 was normalized to 1 in order to better compare binding among all clones. […] In general, binding intensity at pH 7 and pH 7.4 was reduced between 10-100-fold
On to B1, for which the binding result is “binds”.
Consider B2, for which the binding result is “binds”.
Same read-out and setting: the value for B3 was “binds”; that for B4 was “binds”; that for B5 was “binds”.
Regarding B6, the binding result is “binds”.
With B7, the binding result is recorded as “binds”.
Take B8: the binding result was “binds”.
On the same count and under the same terms, the value for B9 was “binds”; that for B10 was “binds”.
Same read-out and setting: the value for B11 was “binds”.
On the same count and under the same terms, for B12 the value was “binds”.
For B13, the binding result is reported as “binds”.
On to B14, for which the binding result is reported as “binds”.
As for B15, the binding result was “binds”.
On to B16, for which the binding result was “binds”.
As for B17, the binding result is on record as “binds”.
For the molecule B18, the binding result is recorded as “binds”.
As for B19, the binding result is reported as “binds”.
For B20, the binding result is “binds”.
Turning to B21, the binding result is “binds”.

In the next assay the target is T1, IL2R(bg)-Fc construct (human IL2R beta …). Briefly: ELISA: biotinylated IL2R(bg)-Fc coated on neutravidin plates, clone in bacterial supernatant bound at pH 6, washing and 30 min incubation at pH 6 or pH 7.4, detection with anti-Flag/HRP; absorption at pH 6 set to 1. The protocol:
FIG. 3. Binding analysis for the first set of selected pH-dependent IL2v variants to IL2Rfβγ at pH 6 and pH 7.4 by ELISA. Bacterial supernatants containing clonal pH-dependent IL2v variants were incubated with previously coated IL2Rfβγ. Prior to the detection by an anti-Flag/HRP secondary antibody, extensive washing for 30 minutes was performed at pH 6 or pH 7.4. The absorption at pH 6 was normalized to a value of 1 and the ratio of absorption levels was compared.
25 μl of 50 nM biotinylated antigen per well were coated at pH 6 on 384-well neutravidin plates and blocked with 2% BSA (50 mM BisTris 140 mM NaCl, 2% BSA, pH 6). Bacterial supernatants containing soluble variants of IL2v were re-buffered to pH 6, added to the plates and incubated for 1 h. Subsequently, several washing steps were performed at either pH 6 or pH 7.4 followed by an incubation step in washing buffer for 30 min at the respective pH. Binding of pH-dependent IL2v variants to the IL2R(bg)-Fc construct was detected via Flag tag by using an anti-Flag/HRP secondary antibody. Comparison of the signal between the two conditions (pH 6 vs pH 7.4) allowed identifying constructs that bind in a pH-dependent manner. The phagemid expressing the parental IL2v construct was used as an internal pH-independent control. […] (FIG. 3), were selected (SEQ ID NOs 5-19) and converted into one-armed (OA) targeted conjugates.
(ELISA stands for enzyme-linked immunosorbent assay.)
Turning to B22, the binding result is “binds”.
On to B23, for which the binding result is “binds”.
In the case of B24, the binding result is reported as “binds”.
Regarding B25, the binding result is “binds”.
For B26, the binding result is recorded as “binds”.
In the case of B27, the binding result is “binds”.
As for B28, the binding result is reported as “binds”.
For B29, the binding result is on record as “binds”.
Take B30: the binding result is listed as “binds”.
Turning to B31, the binding result is “binds”.
For B32, the binding result is “binds”.
On the same count and under the same terms, for B33 the value was “binds”; for B34, “binds”.
B35: the binding result was “binds”.
